The values that follow come from patent US20140228277A1 (Genentech, published 2014).

Sequences and labels used below:
B1: BACE030 (peptide)
peptide: Ac-ESMYCRLLGIGCG-NH2
modifications: disulfide 5-12
SMILES: CC[C@H](C)[C@@H]1NC(=O)CNC(=O)[C@H](CC(C)C)NC(=O)[C@H](CC(C)C)NC(=O)[C@H](CCCNC(=N)N)NC(=O)[C@@H](NC(=O)[C@H](Cc2ccc(O)cc2)NC(=O)[C@H](CCSC)NC(=O)[C@H](CO)NC(=O)[C@H](CCC(=O)O)NC(C)=O)CSSC[C@@H](C(=O)NCC(N)=O)NC(=O)CNC1=O
notes: Minimal version of BACE020 with full activity
B2: BMS1 (peptide)
peptide: Ac-NLTTYPYFIPLP-NH2
notes: also called Peptide 1 of Kornacker et al
B3: SEQ ID NO 90 (peptide)
chain: TEESIYCRLLGLGCD
notes: not shown: M13 major coat protein; peptide fused to its N-terminus
B4: SEQ ID NO 81 (peptide)
chain: NVEHIHCRLLGLGCG
modifications: not fully specified (C-terminus, bridges); cysteine pairing not given here
notes: as for B3
B5: SEQ ID NO 71 (peptide)
chain: KEENIYCRLLSLGCS
notes: as for B3
B6: SEQ ID NO 76 (peptide)
chain: NGDNMYCRLLGLGCE
modifications: not fully specified (C-terminus, bridges); cysteine pairing not given here
notes: as for B3
B7: SEQ ID NO 88 (peptide)
chain: HEDHLYCRLLGIGCG
modifications: not fully specified (C-terminus, bridges); cysteine pairing not given here
notes: as for B3
B8: SEQ ID NO 84 (peptide)
chain: TDESIYCRLLSIACG
modifications: not fully specified (C-terminus, bridges); cysteine pairing not given here
notes: as for B3
B9: SEQ ID NO 95 (peptide)
chain: NDENMYCRLLGLGCA
modifications: not fully specified (C-terminus, bridges); cysteine pairing not given here
notes: as for B3
B10: SEQ ID NO 80 (peptide)
chain: KEESIHCRLLGLGCG
notes: as for B3
B11: SEQ ID NO 69 (peptide)
chain: NMESVHCRLLGLGCG
notes: as for B3
B12: SEQ ID NO 78 (peptide)
chain: NDESVYCRLLGIGCG
notes: as for B3
B13: SEQ ID NO 86 (peptide)
chain: NEENMYCRLMGIGCG
modifications: not fully specified (C-terminus, bridges); cysteine pairing not given here
notes: as for B3
B14: SEQ ID NO 77 (peptide)
chain: DVESVYCRLLGLGCG
modifications: not fully specified (C-terminus, bridges); cysteine pairing not given here
notes: as for B3
B15: SEQ ID NO 85 (peptide)
chain: KEESIYCRLLGHGCG
modifications: not fully specified (C-terminus, bridges); cysteine pairing not given here
notes: as for B3
B16: SEQ ID NO 92 (peptide)
chain: NEVSLYCRLLDLGCG
modifications: not fully specified (C-terminus, bridges); cysteine pairing not given here
notes: as for B3
B17: SEQ ID NO 79 (peptide)
chain: TEESLYCRLLGVGCG
modifications: not fully specified (C-terminus, bridges); cysteine pairing not given here
notes: as for B3
B18: SEQ ID NO 75 (peptide)
chain: IEESIYCRLLGFGCG
notes: as for B3
B19: SEQ ID NO 94 (peptide)
chain: NDEHMYCRLLGLDCN
modifications: not fully specified (C-terminus, bridges); cysteine pairing not given here
notes: as for B3
B20: SEQ ID NO 70 (peptide)
chain: NEESIYCRLLGLGCG
modifications: not fully specified (C-terminus, bridges); cysteine pairing not given here
notes: as for B3
B21: SEQ ID NO 91 (peptide)
chain: AEESIYCRLLGLGCG
modifications: not fully specified (C-terminus, bridges); cysteine pairing not given here
notes: as for B3
B22: SEQ ID NO 87 (peptide)
chain: YEESIYCRLLGLGCG
modifications: not fully specified (C-terminus, bridges); cysteine pairing not given here
notes: as for B3
B23: SEQ ID NO 83 (peptide)
chain: YEESIYCRLLGIGCG
modifications: not fully specified (C-terminus, bridges); cysteine pairing not given here
notes: as for B3
B24: SEQ ID NO 74 (peptide)
chain: VEESIYCRLLGLGCG
notes: as for B3
B25: SEQ ID NO 72 (peptide)
chain: NEESIYCRLLGLACG
modifications: not fully specified (C-terminus, bridges); cysteine pairing not given here
notes: as for B3
B26: SEQ ID NO 93 (peptide)
chain: NPENNYCRLLNLGCG
notes: as for B3
B27: SEQ ID NO 82 (peptide)
chain: NDDSLYCRLLGLGCG
modifications: not fully specified (C-terminus, bridges); cysteine pairing not given here
notes: as for B3
B28: SEQ ID NO 73 (peptide)
chain: KEDSMYCRLLGLGCG
modifications: not fully specified (C-terminus, bridges); cysteine pairing not given here
notes: as for B3
B29: SEQ ID NO 89 (peptide)
chain: KEESLYCRLLGLGCG
modifications: not fully specified (C-terminus, bridges); cysteine pairing not given here
notes: as for B3

Positions of bridges follow the written chain, without caps; N, C: chain ends. No end group written: not given here.

For the first assay, the target named is T1, recombinant human BACE1 (rhBACE1) (human, UniProt P56817 22-457, limits assumed). The experiment in a line: cell-based or functional assay.
T1 sequence (P56817 22-457 limits assumed): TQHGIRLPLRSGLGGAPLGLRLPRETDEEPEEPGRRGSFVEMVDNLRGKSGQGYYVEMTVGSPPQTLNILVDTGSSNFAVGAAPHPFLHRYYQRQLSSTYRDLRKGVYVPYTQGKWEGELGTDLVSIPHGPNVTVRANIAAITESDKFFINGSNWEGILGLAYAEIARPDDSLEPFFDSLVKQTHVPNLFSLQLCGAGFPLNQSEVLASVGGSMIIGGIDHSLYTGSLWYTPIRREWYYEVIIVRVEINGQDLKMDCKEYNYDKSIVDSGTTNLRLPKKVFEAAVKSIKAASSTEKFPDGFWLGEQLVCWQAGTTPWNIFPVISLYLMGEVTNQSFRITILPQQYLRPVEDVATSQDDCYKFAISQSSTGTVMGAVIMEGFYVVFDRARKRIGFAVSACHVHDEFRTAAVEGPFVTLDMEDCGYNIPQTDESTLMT
On to B1, for which the “Caliper (MCE) BACE1 activity assay IC50” value is 18 nM. Still for that read-out and setting: under Ac-ESMYCKLLGIGCG-NH2 (disulfide 5-12 (inferred), also called BACE030 with Arg to lysine) [BACE058] stands 74 nM. Ac-ESMYCALLGIGCG-NH2 (disulfide 5-12 (inferred)) [BACE057]: the “Caliper (MCE) BACE1 activity assay IC50” value is above 10000 nM. For Ac-AEESMYCRLLGIGCG-NH2 (disulfide 7-14 (inferred), also called BACE020 position 1 to Ala) [BACE042], the “Caliper (MCE) BACE1 activity assay IC50” value was determined as 12 nM.

For Ac-NAESMYCRLLGIGCG-NH2 (disulfide 7-14 (inferred), also called BACE020 Glu2 to Ala) [BACE043], the “Caliper (MCE) BACE1 activity assay IC50” value is 13 nM.

Consider Ac-MYCRLLGIGCG-NH2 (disulfide 3-10 (inferred)) [BACE032], for which the “Caliper (MCE) BACE1 activity assay IC50” value turned out to be 8090 nM. In the case of B2, the “Caliper (MCE) BACE1 activity assay, EC50 (rate increased)” value is 227 nM. For the molecule Ac-YCRLLGIGCG-NH2 (disulfide 2-9 (inferred)) [BACE033], the “Caliper (MCE) BACE1 activity assay IC50” value came out at 10900 nM. For Ac-EESMYCRLLGIGCG-NH2 (disulfide 6-13 (inferred), N-terminal truncation of BACE020) [BACE029], the “Caliper (MCE) BACE1 activity assay IC50” value was determined as 13 nM.

Turning to Ac-SMYCRLLGIGCG-NH2 (disulfide 4-11 (inferred), also called BACE31) [BACE031], the “Caliper (MCE) BACE1 activity assay IC50” value stood at 1280 nM.

The target in a further assay is T1, recombinant human BACE1 (rhBACE1). The experiment in a line: FP competition binding; 12 nM rhBACE1, competitor probe 5-TAMRA-BACE020. The method, then:
BACE1 binding assays were carried out in a final volume of 10 μL per well in black 384-well microplates (Proxiplate-Plus; Perkin Elmer, Waltham, Mass.). […] The reaction was permitted to proceed towards equilibrium for 2 h at ambient temperature prior to fluorescence polarization measurement using Envision (Perkin Elmer). The parallel and perpendicular fluorescent emissions measured in each well at 595 nm (excitation 531 nm polarized light) were used to determine the milli-polarization level (mP) using the following formula: mP=1000*(S−G*P)/(S+G*P) where S=parallel emission, P=perpendicular emission and G=0.65.
The affinities of BACE1 peptide ligands were measured using the abovementioned competition binding FP assay for determining IC₅₀ values with serially diluted peptides. A Caliper assay was used to measure the inhibition of BACE1 enzymatic activity by peptide ligands.
With B1, the 50% inhibitory concentration (IC50) – broadly, the point on the concentration scale where inhibition reaches its midpoint – worked out at 23 nM. As for Ac-ESMYCKLLGIGCG-NH2 (disulfide 5-12 (inferred), also called BACE030 with Arg to lysine) [BACE058], the concentration for half-maximal inhibition (IC50) stood at 486 nM.

On to Ac-AEESMYCRLLGIGCG-NH2 (disulfide 7-14 (inferred), also called BACE020 position 1 to Ala) [BACE042], for which the IC50 is 31 nM. On to Ac-NAESMYCRLLGIGCG-NH2 (disulfide 7-14 (inferred), also called BACE020 Glu2 to Ala) [BACE043], for which the IC50 was found to be 41 nM. Consider B2, for which the IC50 is above 10000 nM. Same read-out and setting: under Ac-EESMYCRLLGIGCG-NH2 (disulfide 6-13 (inferred), N-terminal truncation of BACE020) [BACE029] stands 12 nM; under Ac-SMYCRLLGIGCG-NH2 (disulfide 4-11 (inferred), also called BACE31) [BACE031], 2600 nM.

Another assay shares this target. Description: spot phage ELISA, plate-immobilized BACE1 against BSA. Background: ELISA stands for enzyme-linked immunosorbent assay.
Take B3: the “fold improvement of signal/noise ratio over parent BACE017” value (“fold improvement of signal/noise ratio” below) was above 5 fold. The same measure, in the same setting: under B4 stands above 5 fold; under B5, above 5 fold.

On to B6, for which the “fold improvement of signal/noise ratio” value is above 5 fold. For the molecule B7, the “fold improvement of signal/noise ratio” value is above 5 fold.

With B8, the “fold improvement of signal/noise ratio” value is above 5 fold.

Regarding B9, the “fold improvement of signal/noise ratio” value is above 5 fold. For B10, the “fold improvement of signal/noise ratio” value was above 5 fold. As to B11, the “fold improvement of signal/noise ratio” value was above 5 fold. Still for that read-out and setting: next, B12: above 5 fold. Still for that read-out and setting: under B13 stands above 5 fold. The same measure, in the same setting: next, B14: above 5 fold. B15: the “fold improvement of signal/noise ratio” value is above 5 fold. On the same count and under the same terms, next, B16: above 5 fold. Same read-out and setting: under B17 stands above 5 fold. On the same count and under the same terms, under B18 stands above 5 fold. B19: the “fold improvement of signal/noise ratio” value was above 5 fold. With B20, the “fold improvement of signal/noise ratio” value is above 5 fold. In the case of B21, the “fold improvement of signal/noise ratio” value was above 5 fold. Consider B22, for which the “fold improvement of signal/noise ratio” value was above 5 fold. Same read-out and setting: under B23 stands above 5 fold; under B24, above 5 fold; under B25, above 5 fold. For B26, the “fold improvement of signal/noise ratio” value was above 5 fold. Still for that read-out and setting: under B27 stands above 5 fold; under B28, above 5 fold; under B29, above 5 fold.
